# Measured values taken from patent publication US10765761B2, “Nucleic acid condensing peptide, nucleic acid condensing peptide set, nucleic acid delivery carrier, nucleic acid delivery method, cell production method, cell detection method and kit” (KABUSHIKI KAISHA TOSHIBA, priority 2016, dated 2020).
# Tested on: plasmid vector (pDNA)
# Test: Average particle diameter, polydispersity index and Zeta potential of peptide-nucleic-acid complexes, Example 6
# Type: physicochemical
# Conditions: peptide-nucleic-acid complex, total peptide 0.24 mg/ml, pDNA 0.15 mg/ml
# Experimental: Each of the peptides was dissolved into 10 mM-HEPES (pH: 5.4) to prepare several peptide solutions having different peptide concentrations.
# For the mHP-1, one peptide solution was prepared to have a peptide concentration of (1) 0.24 mg/ml. For the mHP-2, one peptide solution was prepared to have a peptide concentration of (2) 0.24 mg/ml. For the mHP-1 and mHP-2, five peptide solutions were prepared to have a total peptide concentration of 0.24 mg/ml and mixture ratios between mHP-1 and mHP-2 of: (3) 1:1, (4) 1:3, (5) 1:5, (6) 1:7 and (7) 1:9. Meanwhile, plasmid vector (pDNA) was diluted with purified water to prepare a nucleic acid solution having a pDNA concentration of 0.15 mg/ml.
# The peptide solutions (1) to (7) (100 μL) were prepared in tubes and the nucleic acid solution (200 μL) was dropped and mixed thereto while stirring each solution to condense the nucleic acids, and thus peptide-nucleic-acid complexes were obtained.
# The peptide-nucleic-acid complexes were investigated in terms of average particle diameter, polydispersity index and Zeta potential using the respective peptide-nucleic-acid solutions. The average particle diameter, polydispersity index and Zeta potential were measured using a zetasizer.
sequence,measurement,value
RQRQRYYRQRQRGGRRRRRR (Nucleic acid condensing peptide) [mHP-1],Average particle diameter (zAve),156.6 nm
same,Polydispersity index (PDI),0.190
same,Zeta potential,−31.1 mV
